# From patent publication US10005846 (LIFEARC, dated 2018)
# Residue numbers refer to the chain shown, from its start.
# T1: mouse TG2 (mouse, UniProt P21981 1-686, limits assumed)
# T1 sequence: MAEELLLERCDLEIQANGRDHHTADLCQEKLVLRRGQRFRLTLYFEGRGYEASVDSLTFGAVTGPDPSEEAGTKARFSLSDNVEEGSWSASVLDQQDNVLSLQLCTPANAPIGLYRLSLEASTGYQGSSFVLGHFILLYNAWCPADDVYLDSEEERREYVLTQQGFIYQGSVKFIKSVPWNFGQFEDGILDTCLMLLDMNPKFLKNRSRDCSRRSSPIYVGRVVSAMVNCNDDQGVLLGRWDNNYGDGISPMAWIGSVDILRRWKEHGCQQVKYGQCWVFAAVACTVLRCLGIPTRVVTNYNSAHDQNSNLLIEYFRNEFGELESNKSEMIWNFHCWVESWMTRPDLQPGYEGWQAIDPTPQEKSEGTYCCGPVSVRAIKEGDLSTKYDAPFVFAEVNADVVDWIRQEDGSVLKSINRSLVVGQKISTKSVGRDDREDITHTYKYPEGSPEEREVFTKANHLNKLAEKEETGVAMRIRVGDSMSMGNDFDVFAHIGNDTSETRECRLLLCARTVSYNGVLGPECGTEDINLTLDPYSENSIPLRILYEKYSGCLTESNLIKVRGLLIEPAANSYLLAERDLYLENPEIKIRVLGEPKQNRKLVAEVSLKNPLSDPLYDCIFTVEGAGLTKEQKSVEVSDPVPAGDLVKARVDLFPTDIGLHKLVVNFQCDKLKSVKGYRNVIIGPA
# T2: TG3 (human, UniProt Q08188)
# T2 construct: recombinant, Zedira; also called recombinant human TG3; Epidermal Transglutaminase
# T2 sequence (enzyme, looked up): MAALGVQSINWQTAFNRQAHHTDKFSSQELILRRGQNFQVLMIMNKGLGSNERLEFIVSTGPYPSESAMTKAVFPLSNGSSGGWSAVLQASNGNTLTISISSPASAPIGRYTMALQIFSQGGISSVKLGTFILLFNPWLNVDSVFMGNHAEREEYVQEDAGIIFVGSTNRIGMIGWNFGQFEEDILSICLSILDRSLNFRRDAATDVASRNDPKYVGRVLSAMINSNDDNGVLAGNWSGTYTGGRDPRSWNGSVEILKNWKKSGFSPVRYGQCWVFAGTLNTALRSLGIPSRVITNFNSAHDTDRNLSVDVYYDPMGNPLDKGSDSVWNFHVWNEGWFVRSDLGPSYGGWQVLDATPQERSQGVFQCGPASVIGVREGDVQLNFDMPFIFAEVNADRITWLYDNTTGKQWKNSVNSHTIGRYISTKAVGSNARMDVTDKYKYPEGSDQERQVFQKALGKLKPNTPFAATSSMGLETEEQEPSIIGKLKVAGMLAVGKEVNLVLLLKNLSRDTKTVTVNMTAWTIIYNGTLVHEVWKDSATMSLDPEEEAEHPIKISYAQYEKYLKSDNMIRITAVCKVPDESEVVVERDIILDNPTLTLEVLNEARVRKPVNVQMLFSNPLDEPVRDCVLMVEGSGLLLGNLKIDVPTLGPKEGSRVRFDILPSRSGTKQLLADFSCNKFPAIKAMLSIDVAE
# T3: TG13
# T3 construct: also called Factor XIIIa
# T3 chain: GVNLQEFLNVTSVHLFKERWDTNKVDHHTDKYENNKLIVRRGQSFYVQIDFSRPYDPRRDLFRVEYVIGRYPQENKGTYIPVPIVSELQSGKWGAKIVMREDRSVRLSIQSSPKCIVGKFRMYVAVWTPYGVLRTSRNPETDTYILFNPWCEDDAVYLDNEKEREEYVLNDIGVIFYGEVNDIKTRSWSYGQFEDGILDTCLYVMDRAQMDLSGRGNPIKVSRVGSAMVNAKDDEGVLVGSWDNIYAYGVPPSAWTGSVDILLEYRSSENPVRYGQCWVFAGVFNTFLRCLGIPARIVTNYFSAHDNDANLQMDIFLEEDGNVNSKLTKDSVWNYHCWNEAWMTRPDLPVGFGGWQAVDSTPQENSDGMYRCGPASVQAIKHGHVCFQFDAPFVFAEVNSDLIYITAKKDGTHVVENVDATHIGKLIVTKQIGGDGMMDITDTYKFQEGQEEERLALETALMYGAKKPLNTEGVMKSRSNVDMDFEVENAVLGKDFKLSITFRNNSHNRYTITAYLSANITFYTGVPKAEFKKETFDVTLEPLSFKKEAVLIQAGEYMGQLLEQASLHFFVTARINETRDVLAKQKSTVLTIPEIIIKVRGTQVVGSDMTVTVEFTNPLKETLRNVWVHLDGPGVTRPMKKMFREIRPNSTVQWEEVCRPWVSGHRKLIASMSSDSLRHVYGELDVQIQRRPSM
# B1: DH2 murine monoclonal antibody (antibody, V domains shown)
# VH: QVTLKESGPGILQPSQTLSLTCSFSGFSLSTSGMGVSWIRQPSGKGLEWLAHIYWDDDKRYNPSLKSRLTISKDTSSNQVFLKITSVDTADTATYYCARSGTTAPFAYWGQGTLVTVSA
# VL: QIVLTQSPAIMSASPGEKVTMTCSASSSVSYMYWYQQKPGSSPRLLIYDTSNLASGVPVRFSGSGSGTSYSLTISRMEAEDAATFYCQQWSSSPLTFGAGTKLELK
# notes: Mouse hybridoma IgG; heavy chain amplified with primer MHCG2B, kappa light chain; also called mDH001
# B2: DD9 murine monoclonal antibody (antibody, V domains shown)
# VH: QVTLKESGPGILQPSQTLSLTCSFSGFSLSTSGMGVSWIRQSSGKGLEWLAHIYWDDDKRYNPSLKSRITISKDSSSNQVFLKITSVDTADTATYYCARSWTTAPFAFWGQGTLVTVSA
# VL: B1 VL with S30D, E78G, F85Y, S91N
# notes: Mouse hybridoma IgG; heavy chain amplified with primer MHCG2A, kappa light chain; also called mDD9001
# B3: EH6 murine monoclonal antibody (antibody, V domains shown)
# VH: EVQLQQSGPELVKPGASVKMSCKASGYTFTSYVMHWVKQKPGQGLEWIGFINPYNDGTKYNEKFKGKATLTSDKASTTAYMELSSLTSEDSAVYYCARFSSGYWGQGTTLTVSS
# VL: DVLMTQTPLSLPVSLGDQASISCRSSQSIVHSNGNTYLEWYLQKPGQSPKLLIYKVSNRFSGVPDRFSGSGSGTDFTLKISRVGAEDLGVYYCLQVSHVPFTFGSGTKLEIK
# notes: Mouse hybridoma IgG; heavy chain amplified with primer MHCG2B, kappa light chain
# B4: JE12 murine monoclonal antibody (antibody, V domains shown)
# VH: B3 VH with T28R, P41S, F50Y, T58A, A75S, T77S, F99L, G102D
# VL: B3 VL with T7N, V30E, S32I, L51F, K79R, G84E, V90I, L94F, V96G, S105G
# notes: Mouse hybridoma IgG; heavy chain amplified with primer MHCG1, kappa light chain
# B5: DC1 murine monoclonal antibody (antibody, V domains shown)
# VH: EVQLVESGGGLVKPGGSLKLSCAASGFTLSTHAMSWVRQTPEKRLEWVATISSGGRSTYYPDSVKGRFTISRDNVKNTLYLQLSSLRSEDTAVYFCARLISTYWGQGTTLTVSS
# VL: DITMTQSPSSIYASLGERVTITCKASQDINSYLTWFQQKPGKSPKILIYLVNRLVDGVPSRFSGSGSGQDYALTISSLEYEDMGIYYCLQYDDFPYTFGGGTKLEIK
# notes: Mouse hybridoma IgG; heavy chain amplified with primer MHCG1, kappa light chain; also called mDC001
# B6: BB7 murine monoclonal antibody (antibody, V domains shown)
# VH: AVQLVESGGGLVKPGGSLKLSCAASGIIFSSSAMSWVRQTPEKRLEWVATISSGGRSTYYPDSVKGRFTVSRDSAKNTLYLQMDSLRSEDTAIYYCAKLISPYWGQGTTLTVSS
# VL: AIKMTQSPSSMYASLGERVIITCKASQDINSYLTWFQQKPGKSPKTLIYLTNRLMDGVPSRFSGSGSGQEFLLTISGLEHEDMGIYYCLQYVDFPYTFGGGTKLEIK
# notes: Mouse hybridoma IgG; heavy chain amplified with primer MHCG1, kappa light chain; also called mBB001
# B7: AG9 murine monoclonal antibody (antibody, V domains shown)
# VH: B3 VH with K23R, S31T, M34I, F50Y, T58A, K59R, A75S, F99L, G102D
# VL: B3 VL with T7N, Q27R, V30E, L51F, K79R, R82S, G84E, L94F, V96G, S105G
# notes: as for B4
# B8: AH3 murine monoclonal antibody (antibody, V domains shown)
# VH: B3 VH with K23R, S31T, M34I, F50Y, T58A, K59R, A75S, F99L, G102D
# VL: B3 VL with T7N, Q27R, V30E, L51F, K79R, R82S, G84E, L94F, V96G, S105G
# notes: as for B3
# B9: AB1 murine monoclonal antibody (antibody, V domains shown)
# VH: EVQLVESGGGLVKPGGSLKLSCAASGFTLSSSAMSWVRQTPDRRLEWVATISVGGGKTYYPDSVKGRFTISRDNAKNTLYLQMNSLRSEDTAMYYCAKLISLYWGQGTTLTVSS
# VL: B5 VL with T3K, I11M, I46T, L50R, V51T, V55F, Y71F, A72F
# notes: Mouse hybridoma IgG; heavy chain amplified with constant region primer MHCG1, kappa light chain; also called mAB003
# Molecular target: T1, mouse TG2
# Experiment: western blot and ELISA
row,binding result,Binder
1,binds,B1
2,binds,B2
3,binds,B3
4,binds,B4
5,binds,B5
6,binds,B6

# Molecular target: T2, TG3
# Experiment: ELISA, hybridoma conditioned medium, plates coated with recombinant TG (100 ng/well) [panel A]
# Experimental: (§1) Conditioned medium or purified IgG were tested for reactivity to transglutaminase family members. The ability of each to bind to each transglutaminase (TG1, TG2, TG3, TG5, TG7 and Factor XIIIa; all Zedira) was determined using a plate binding assay. Microtiter plates (Costar, Cambridge, UK) were coated with recombinant TG (Zedira, Darmstadt, Germany) in 50 μl of 0.1 M bicarbonate/carbonate buffer (pH 9.6) overnight at 4° C. Plates were blocked for 2 h at 37° C. with 200 μl PBS containing 3% w/v BSA. Plates were washed three times with PBS containing 0.05% Tween 20 (washing buffer) and 100 μl of diluted conditioned medium (dilution 1:5 to 1:20) or purified anti-TG2 catalytic core mAbs was added. Plates were incubated for a further 1 h at room temperature. The washing step was repeated and anti-mouse gamma chain-horseradish peroxidase (1:5000) in PBS containing 0.05% Tween 20 (v:v) and 1% BSA (w:v) (Sigma, Poole UK) was added for 1 h. […] The reaction was stopped by adding 25 μl of 0.1 M H_2SO_4 and the absorbance at 450 nm was determined.
row,binding result,Binder
1,no binding,B1
2,no binding,B2
3,no binding,B7
4,no binding,B3
5,no binding,B8
6,no binding,B4
7,no binding,B9
8,no binding,B6

# Molecular target: T3, TG13
# Experiment: as above
# Experimental: as §1
row,binding result,Binder
1,no binding,B1
2,no binding,B2
3,no binding,B7
4,no binding,B3
5,no binding,B8
6,no binding,B4
7,no binding,B9
8,no binding,B6
